Test results as given in patent US20220389118A1 (Chugai, published 2022).

T1: human FcγRIIb extracellular domain with C-terminal His tag (human, UniProt P31994 43-217)
T1 construct: extracellular domain; not shown: His tag at the C terminus
T1 sequence (looked up): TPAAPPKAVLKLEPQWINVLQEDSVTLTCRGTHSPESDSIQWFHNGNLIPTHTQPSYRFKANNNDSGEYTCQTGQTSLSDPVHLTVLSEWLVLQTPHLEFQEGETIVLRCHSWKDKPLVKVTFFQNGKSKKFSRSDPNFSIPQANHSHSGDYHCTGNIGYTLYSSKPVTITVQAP

T2: human FcγRIIa type R (R131) extracellular domain with C-terminal His tag (human, UniProt P12318 34-217)
T2 construct: extracellular domain; also called FcγRIIaR; not shown: His tag at the C terminus
T2 sequence (looked up): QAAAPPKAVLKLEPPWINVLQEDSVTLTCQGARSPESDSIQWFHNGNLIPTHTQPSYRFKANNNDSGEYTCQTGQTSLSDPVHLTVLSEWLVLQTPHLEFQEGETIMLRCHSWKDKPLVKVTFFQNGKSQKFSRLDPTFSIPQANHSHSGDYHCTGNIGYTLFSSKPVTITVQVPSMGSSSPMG

T3: human FcγRIIb extracellular domain (human, UniProt P31994 43-217)
T3 construct: also called FcγIIB; not shown: His tag at the C terminus
T3 sequence: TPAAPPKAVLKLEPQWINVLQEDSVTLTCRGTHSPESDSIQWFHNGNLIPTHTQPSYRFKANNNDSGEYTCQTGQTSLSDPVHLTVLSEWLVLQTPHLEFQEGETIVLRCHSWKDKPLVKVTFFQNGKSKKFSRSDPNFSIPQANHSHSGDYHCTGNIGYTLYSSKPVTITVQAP

T4: human FcγRIIa type R extracellular domain (human, UniProt P12318 34-217)
T4 construct: also called FcγRIIaR; FcγRIIa(R); not shown: His tag at the C terminus
T4 chain: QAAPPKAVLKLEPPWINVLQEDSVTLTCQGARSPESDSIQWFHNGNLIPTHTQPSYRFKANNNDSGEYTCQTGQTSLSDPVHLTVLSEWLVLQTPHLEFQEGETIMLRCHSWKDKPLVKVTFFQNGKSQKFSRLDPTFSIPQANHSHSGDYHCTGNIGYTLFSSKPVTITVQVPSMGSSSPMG


What was measured:
[1] = target: T1, human FcγRIIb extracellular domain with …; experiment: SPR (Biacore); KD for FcγRIIaR divided by KD for FcγRIIb
[2] = target: T1, human FcγRIIb extracellular domain with …; experiment: SPR (Biacore); KD of IL6R-B3/IL6R-L divided by KD of this antibody
[3] = target: T2, human FcγRIIa type R (R131) …; experiment: as above
[4] = target: T5, human FcγRIa extracellular domain with C-terminal His tag (human, UniProt P12314 16-292); experiment: SPR (Biacore), antibody captured, FcγR analyte
T5 construct: not shown: His tag at the C terminus
T5 sequence (P12314 16-292): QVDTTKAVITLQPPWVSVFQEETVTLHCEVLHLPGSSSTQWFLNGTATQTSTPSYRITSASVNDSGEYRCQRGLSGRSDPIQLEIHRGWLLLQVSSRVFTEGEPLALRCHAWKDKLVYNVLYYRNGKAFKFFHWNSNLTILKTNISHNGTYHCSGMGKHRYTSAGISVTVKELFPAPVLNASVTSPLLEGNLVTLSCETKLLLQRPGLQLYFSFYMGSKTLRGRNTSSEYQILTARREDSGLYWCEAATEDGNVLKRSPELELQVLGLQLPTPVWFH

[5] = target: T1, human FcγRIIb extracellular domain with …; experiment: SPR (Biacore), antibody captured, FcγR analyte
[6] = target: T2, human FcγRIIa type R (R131) …; experiment: SPR (Biacore), antibody captured, FcγR analyte
[7] = target: T3, human FcγRIIb extracellular domain; experiment: ratio of the SPR KD for FcγRIIaH to the KD for FcγRIIb (selectivity)
[8] = target: T3, human FcγRIIb extracellular domain; experiment: ratio of the SPR KD for FcγRIIaR to the KD for FcγRIIb (selectivity)
[9] = target: T6, human FcγRIa extracellular domain (human, UniProt P12314 16-292); experiment: SPR (Biacore), antibody captured on chip, FcγR extracellular domain as analyte, 25 C
T6 construct: also called CD64; not shown: His tag at the C terminus
T6 sequence (P12314 16-292): as above

[10] = target: T4, human FcγRIIa type R extracellular …; experiment: as above
[11] = target: T3, human FcγRIIb extracellular domain; experiment: as above
[12] = target: T4, human FcγRIIa type R extracellular …; experiment: fold against IL6R-B3/IL6R-L, from SPR KD values
[13] = target: T3, human FcγRIIb extracellular domain; experiment: fold against IL6R-B3/IL6R-L, from SPR KD values

Binder | KD(IIaR)/KD(IIb) [1] | KD(IIb) of parent polypeptide/KD(IIb) of altered polypeptide [2] | KD(IIaR) of parent polypeptide/KD(IIaR) of altered polypeptide [3] | Kd [4] | Kd [5] | Kd [6] | KD(IIaH)/KD(IIb) [7] | KD(IIaR)/KD(IIb) [8] | Kd [9] | Kd [10] | Kd [11] | KD(IIaR) of the parent polypeptide/KD(IIaR) of the altered polypeptide [12] | KD(IIb) of the parent polypeptide/KD(IIb) of the altered polypeptide [13]
IL6R-BP564/IL6R-L (antibody, human IgG1, kappa, copies: 2 + 2) heavy: QVQLQESGPGLVKPSETLSLTCAVSGHSISHDHAWSWVRQPPGEGLEWIGFISYSGITNYNPSLQGRVTISRDNSKNTLYLQMNSLRAEDTAVYYCARSLARTTAMDYWGEGTLVTVSSASTKGPSVFPLAPSSKSTSGGTAALGCLVKDYFPEPVTVSWNSGALTSGVHTFPAVLQSSGLYSLSSVVTVPSSSLGTQTYICNVNHKPSNTKVDKKVEPKSCDKTHTCPPCPAPELLGDDSVFLFPPKPKDTLMISRTPEVTCVVVDVSEEDGDVKFNWYVDGVEVHNAKTKPREEQDNSTYRVVSVLTVLHQDWLNGKEYKCKVSNKALPRPIEKTISKAKGQPREPQVYTLPPSRDELTKNQVSLTCLVKGFYPSDIAVEWESNGQPENNYKTTPPVLDSDGSFFLYSKLTVDKSRWQQGNVFSCSVMHEALHNHYTQESLSLSP light: not shown | – | – | – | – | – | – | 454 | 26.2 | 31 nM | 580 nM | 22 nM | 1.9 | 141
IL6R-BP562/IL6R-L (antibody, human IgG1, kappa, copies: 2 + 2) heavy: QVQLQESGPGLVKPSETLSLTCAVSGHSISHDHAWSWVRQPPGEGLEWIGFISYSGITNYNPSLQGRVTISRDNSKNTLYLQMNSLRAEDTAVYYCARSLARTTAMDYWGEGTLVTVSSASTKGPSVFPLAPSSKSTSGGTAALGCLVKDYFPEPVTVSWNSGALTSGVHTFPAVLQSSGLYSLSSVVTVPSSSLGTQTYICNVNHKPSNTKVDKKVEPKSCDKTHTCPPCPAPELLGDDSVFLFPPKPKDTLMISRTPEVTCVVVDVSDEDGDVKFNWYVDGVEVHNAKTKPREEQDNSTYRVVSVLTVLHQDWLNGKEYKCKVSNKALPRPIEKTISKAKGQPREPQVYTLPPSRDELTKNQVSLTCLVKGFYPSDIAVEWESNGQPENNYKTTPPVLDSDGSFFLYSKLTVDKSRWQQGNVFSCSVMHEALHNHYTQESLSLSP light: not shown | – | – | – | – | – | – | 466 | 29 | 25 nM | 680 nM | 24 nM | 1.6 | 131
IL6R-BP546/IL6R-L (antibody, human IgG1, kappa, L358M introduced into IL6R-BP230; copies: 2 + 2) heavy: QVQLQESGPGLVKPSETLSLTCAVSGHSISHDHAWSWVRQPPGEGLEWIGFISYSGITNYNPSLQGRVTISRDNSKNTLYLQMNSLRAEDTAVYYCARSLARTTAMDYWGEGTLVTVSSASTKGPSVFPLAPSSKSTSGGTAALGCLVKDYFPEPVTVSWNSGALTSGVHTFPAVLQSSGLYSLSSVVTVPSSSLGTQTYICNVNHKPSNTKVDKKVEPKSCDKTHTCPPCPAPDLLGDDSVFLFPPKPKDTLMISRTPEVTCVVVDVSDEDGEVKFNWYVDGVEVHNAKTKPREEQDNSTYRVVSVLTVLHQDWLNGKEYKCKVSNKALPRPIEKTISKAKGQPREPQVYTLPPSRDEMTKNQVSLTCLVKGFYPSDIAVEWESNGQPENNYKTTPPVLDSDGSFFLYSKLTVDKSRWQQGNVFSCSVMHEALHNHYTQESLSLSP light: not shown | 32.8 | 205 | 2.2 | 9 nM | 15 nM | 500 nM | – | – | – | – | – | – | –
IL6R-BP544/IL6R-L (antibody, human IgG1, kappa, R355Q introduced into IL6R-BP230; copies: 2 + 2) heavy: QVQLQESGPGLVKPSETLSLTCAVSGHSISHDHAWSWVRQPPGEGLEWIGFISYSGITNYNPSLQGRVTISRDNSKNTLYLQMNSLRAEDTAVYYCARSLARTTAMDYWGEGTLVTVSSASTKGPSVFPLAPSSKSTSGGTAALGCLVKDYFPEPVTVSWNSGALTSGVHTFPAVLQSSGLYSLSSVVTVPSSSLGTQTYICNVNHKPSNTKVDKKVEPKSCDKTHTCPPCPAPDLLGDDSVFLFPPKPKDTLMISRTPEVTCVVVDVSDEDGEVKFNWYVDGVEVHNAKTKPREEQDNSTYRVVSVLTVLHQDWLNGKEYKCKVSNKALPRPIEKTISKAKGQPREPQVYTLPPSQDELTKNQVSLTCLVKGFYPSDIAVEWESNGQPENNYKTTPPVLDSDGSFFLYSKLTVDKSRWQQGNVFSCSVMHEALHNHYTQESLSLSP light: not shown | 28.8 | 184 | 2.2 | 9.8 nM | 17 nM | 480 nM | – | – | – | – | – | – | –

Now from value to binder:

KD(IIaR)/KD(IIb) [1] | KD(IIb) of parent polypeptide/KD(IIb) of altered polypeptide [2] | KD(IIaR) of parent polypeptide/KD(IIaR) of altered polypeptide [3] | Kd [4] | Kd [5] | Kd [6] | KD(IIaH)/KD(IIb) [7] | KD(IIaR)/KD(IIb) [8] | Kd [9] | Kd [10] | Kd [11] | KD(IIaR) of the parent polypeptide/KD(IIaR) of the altered polypeptide [12] | KD(IIb) of the parent polypeptide/KD(IIb) of the altered polypeptide [13] | Binder
27.3 | 152 | 1.9 | 23 nM | 20 nM | 560 nM | – | – | – | – | – | – | – | IL6R-BP543/IL6R-L (antibody, human IgG1, kappa, H268Q introduced into IL6R-BP230 (takes the place of H268D); copies: 2 + 2) heavy: QVQLQESGPGLVKPSETLSLTCAVSGHSISHDHAWSWVRQPPGEGLEWIGFISYSGITNYNPSLQGRVTISRDNSKNTLYLQMNSLRAEDTAVYYCARSLARTTAMDYWGEGTLVTVSSASTKGPSVFPLAPSSKSTSGGTAALGCLVKDYFPEPVTVSWNSGALTSGVHTFPAVLQSSGLYSLSSVVTVPSSSLGTQTYICNVNHKPSNTKVDKKVEPKSCDKTHTCPPCPAPDLLGDDSVFLFPPKPKDTLMISRTPEVTCVVVDVSQEDGEVKFNWYVDGVEVHNAKTKPREEQDNSTYRVVSVLTVLHQDWLNGKEYKCKVSNKALPRPIEKTISKAKGQPREPQVYTLPPSRDELTKNQVSLTCLVKGFYPSDIAVEWESNGQPENNYKTTPPVLDSDGSFFLYSKLTVDKSRWQQGNVFSCSVMHEALHNHYTQESLSLSP light: not shown
– | – | – | – | – | – | 168 | 22.8 | 5.6 nM | 4200 nM | 180 nM | 0.3 | 16.8 | IL6R-BP560/IL6R-L (antibody, human IgG1, kappa, anti-human IL-6 receptor IgG1 variant; copies: 2 + 2) heavy: QVQLQESGPGLVKPSETLSLTCAVSGHSISHDHAWSWVRQPPGEGLEWIGFISYSGITNYNPSLQGRVTISRDNSKNTLYLQMNSLRAEDTAVYYCARSLARTTAMDYWGEGTLVTVSSASTKGPSVFPLAPSSKSTSGGTAALGCLVKDYFPEPVTVSWNSGALTSGVHTFPAVLQSSGLYSLSSVVTVPSSSLGTQTYICNVNHKPSNTKVDKKVEPKSCDKTHTCPPCPAPELLGGDSVFLFPPKPKDTLMISRTPEVTCVVVDVGEEDGEVKFNWYVDGVEVHNAKTKPREEQDNSTYRVVSVLTVLHQDWLNGKEYKCKVSNKALPRPIEKTISKAKGQPREPQVYTLPPSRDELTKNQVSLTCLVKGFYPSDIAVEWESNGQPENNYKTTPPVLDSDGSFFLYSKLTVDKSRWQQGNVFSCSVMHEALHNHYTQESLSLSP light: not shown
26.2 | 162 | 2.2 | 12 nM | 19 nM | 500 nM | – | – | – | – | – | – | – | IL6R-BP548/IL6R-L (antibody, human IgG1, kappa, Q419E introduced into IL6R-BP230; copies: 2 + 2) heavy: QVQLQESGPGLVKPSETLSLTCAVSGHSISHDHAWSWVRQPPGEGLEWIGFISYSGITNYNPSLQGRVTISRDNSKNTLYLQMNSLRAEDTAVYYCARSLARTTAMDYWGEGTLVTVSSASTKGPSVFPLAPSSKSTSGGTAALGCLVKDYFPEPVTVSWNSGALTSGVHTFPAVLQSSGLYSLSSVVTVPSSSLGTQTYICNVNHKPSNTKVDKKVEPKSCDKTHTCPPCPAPDLLGDDSVFLFPPKPKDTLMISRTPEVTCVVVDVSDEDGEVKFNWYVDGVEVHNAKTKPREEQDNSTYRVVSVLTVLHQDWLNGKEYKCKVSNKALPRPIEKTISKAKGQPREPQVYTLPPSRDELTKNQVSLTCLVKGFYPSDIAVEWESNGQPENNYKTTPPVLDSDGSFFLYSKLTVDKSRWQEGNVFSCSVMHEALHNHYTQESLSLSP light: not shown
